What all share (assay): SPR
One data set concerns the target integrin αvβ3 (Homo sapiens, UniProt P06756;P05106 31-992;27-718).
The target in data set [1] is T1, integrin α5β1 (soluble, SPR) (Homo sapiens, UniProt P08648;P05556 42-995;21-728).
The target in data set [2] is T1, integrin α5β1 (soluble, SPR). The source holds these as a separate data set.

T1 sequence (P08648 42-995, chain 1 of 2): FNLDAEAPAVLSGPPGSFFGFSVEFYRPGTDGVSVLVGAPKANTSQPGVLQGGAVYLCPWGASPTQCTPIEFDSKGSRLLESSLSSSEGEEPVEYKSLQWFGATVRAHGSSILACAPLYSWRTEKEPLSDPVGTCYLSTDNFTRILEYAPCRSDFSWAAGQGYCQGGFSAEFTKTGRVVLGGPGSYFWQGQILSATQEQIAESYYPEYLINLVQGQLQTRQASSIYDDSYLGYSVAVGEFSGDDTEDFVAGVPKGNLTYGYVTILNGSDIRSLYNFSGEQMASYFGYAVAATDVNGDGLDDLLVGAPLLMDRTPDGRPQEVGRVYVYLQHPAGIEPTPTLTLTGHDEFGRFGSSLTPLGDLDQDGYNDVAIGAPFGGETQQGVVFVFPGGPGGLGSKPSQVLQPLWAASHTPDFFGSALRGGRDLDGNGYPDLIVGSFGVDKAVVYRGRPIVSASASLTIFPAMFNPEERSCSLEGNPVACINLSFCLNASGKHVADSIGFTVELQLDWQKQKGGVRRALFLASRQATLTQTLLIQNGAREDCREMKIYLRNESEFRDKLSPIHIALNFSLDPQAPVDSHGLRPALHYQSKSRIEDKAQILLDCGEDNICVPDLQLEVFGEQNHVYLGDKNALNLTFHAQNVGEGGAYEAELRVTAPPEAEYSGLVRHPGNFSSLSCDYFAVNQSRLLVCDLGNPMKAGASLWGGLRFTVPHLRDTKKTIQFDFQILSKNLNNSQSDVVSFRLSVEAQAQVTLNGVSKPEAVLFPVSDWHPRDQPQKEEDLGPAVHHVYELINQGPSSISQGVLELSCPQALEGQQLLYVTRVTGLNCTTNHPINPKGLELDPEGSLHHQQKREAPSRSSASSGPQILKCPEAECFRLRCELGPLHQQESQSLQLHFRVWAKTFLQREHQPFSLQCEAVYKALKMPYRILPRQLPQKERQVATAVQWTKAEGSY
T1 sequence (P05556 21-728, chain 2 of 2): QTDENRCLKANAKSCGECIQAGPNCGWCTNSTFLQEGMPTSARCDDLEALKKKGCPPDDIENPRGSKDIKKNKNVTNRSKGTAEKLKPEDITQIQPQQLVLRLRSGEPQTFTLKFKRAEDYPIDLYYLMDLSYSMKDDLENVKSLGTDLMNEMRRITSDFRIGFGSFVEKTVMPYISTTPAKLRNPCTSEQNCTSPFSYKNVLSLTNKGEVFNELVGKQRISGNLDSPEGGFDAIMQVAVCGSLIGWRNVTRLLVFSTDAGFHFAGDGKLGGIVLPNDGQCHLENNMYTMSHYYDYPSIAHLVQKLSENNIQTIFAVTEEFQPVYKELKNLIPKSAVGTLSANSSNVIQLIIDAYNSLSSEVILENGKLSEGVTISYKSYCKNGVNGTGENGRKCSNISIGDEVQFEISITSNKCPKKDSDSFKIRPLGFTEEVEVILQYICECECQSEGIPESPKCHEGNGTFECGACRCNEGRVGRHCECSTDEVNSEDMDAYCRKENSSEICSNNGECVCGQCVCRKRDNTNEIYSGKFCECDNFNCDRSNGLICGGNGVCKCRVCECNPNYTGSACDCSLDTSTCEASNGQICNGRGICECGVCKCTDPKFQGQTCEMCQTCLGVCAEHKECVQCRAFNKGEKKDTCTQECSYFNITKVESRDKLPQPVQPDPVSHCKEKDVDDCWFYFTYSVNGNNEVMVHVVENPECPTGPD
Chain of integrin αvβ3 (P06756 31-992, chain 1 of 2): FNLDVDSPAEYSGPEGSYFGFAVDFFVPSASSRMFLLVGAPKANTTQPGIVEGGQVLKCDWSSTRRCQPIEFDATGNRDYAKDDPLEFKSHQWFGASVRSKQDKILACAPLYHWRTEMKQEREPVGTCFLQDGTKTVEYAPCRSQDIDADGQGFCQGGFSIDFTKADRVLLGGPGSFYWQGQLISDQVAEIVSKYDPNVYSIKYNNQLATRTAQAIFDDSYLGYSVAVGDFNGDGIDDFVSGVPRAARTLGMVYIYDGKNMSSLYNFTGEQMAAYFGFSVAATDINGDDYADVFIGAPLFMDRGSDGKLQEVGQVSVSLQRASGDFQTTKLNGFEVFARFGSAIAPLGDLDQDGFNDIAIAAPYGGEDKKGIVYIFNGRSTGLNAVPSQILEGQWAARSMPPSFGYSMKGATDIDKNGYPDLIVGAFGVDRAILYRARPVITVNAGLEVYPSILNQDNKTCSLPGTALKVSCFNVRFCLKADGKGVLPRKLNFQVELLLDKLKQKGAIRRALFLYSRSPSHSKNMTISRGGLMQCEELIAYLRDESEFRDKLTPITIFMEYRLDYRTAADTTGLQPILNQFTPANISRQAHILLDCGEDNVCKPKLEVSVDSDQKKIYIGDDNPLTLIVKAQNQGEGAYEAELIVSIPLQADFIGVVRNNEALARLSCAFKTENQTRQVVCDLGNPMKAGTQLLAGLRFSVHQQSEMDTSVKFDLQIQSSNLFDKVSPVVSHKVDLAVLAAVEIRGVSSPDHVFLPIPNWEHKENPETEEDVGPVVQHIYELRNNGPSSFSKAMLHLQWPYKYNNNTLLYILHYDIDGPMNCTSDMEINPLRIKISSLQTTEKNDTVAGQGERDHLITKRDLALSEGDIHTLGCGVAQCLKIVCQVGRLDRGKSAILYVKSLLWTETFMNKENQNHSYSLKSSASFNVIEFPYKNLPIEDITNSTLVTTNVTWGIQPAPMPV
Chain of integrin αvβ3 (P05106 27-718, chain 2 of 2): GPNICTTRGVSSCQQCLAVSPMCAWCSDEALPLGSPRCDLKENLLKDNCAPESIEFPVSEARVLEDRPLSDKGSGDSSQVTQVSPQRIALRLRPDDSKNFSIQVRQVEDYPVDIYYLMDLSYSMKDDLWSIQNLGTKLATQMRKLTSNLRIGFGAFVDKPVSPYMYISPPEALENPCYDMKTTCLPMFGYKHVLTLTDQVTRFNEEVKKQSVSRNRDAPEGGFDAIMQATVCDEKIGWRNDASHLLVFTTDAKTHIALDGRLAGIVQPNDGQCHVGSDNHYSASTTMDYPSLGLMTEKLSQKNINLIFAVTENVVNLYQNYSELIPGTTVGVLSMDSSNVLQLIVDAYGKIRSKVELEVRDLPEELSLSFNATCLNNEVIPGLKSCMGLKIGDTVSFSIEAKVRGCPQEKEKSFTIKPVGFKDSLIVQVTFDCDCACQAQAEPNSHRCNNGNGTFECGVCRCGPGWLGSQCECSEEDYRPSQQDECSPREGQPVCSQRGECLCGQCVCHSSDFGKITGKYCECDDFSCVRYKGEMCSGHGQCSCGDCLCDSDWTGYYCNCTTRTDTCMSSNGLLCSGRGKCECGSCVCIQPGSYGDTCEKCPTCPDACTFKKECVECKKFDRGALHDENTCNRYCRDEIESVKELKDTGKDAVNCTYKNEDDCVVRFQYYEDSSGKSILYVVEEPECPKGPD

B1: aptamer H02-2'F (XNA)
RNA: GGUUACCAGCCUUCACUGCGGACGGACAGAGAGUGCAACCUGCCGUGCCGCACCACGGUCGGUCACAC
modifications: 2'-fluoro pyrimidines
Take B1: in the data set with integrin αvβ3, the binding result was “no binding”. Also, the Kd in data set [1] turned out to be 72 ± 11 nM.

B2: aptamer B03 (biotinylated, SPR) (structured_RNA)
RNA: GGUUACCAGCCUUCACUGCGCCCAGUCACUGCACGAAUCAGUGAUGGCCGCACCACGGUCGGUCACAC
modifications: 2'-fluoro pyrimidines? (not stated for B03)
Regarding B2, the binding result in data set [2] is reported as “no binding”.

What is called Kd is the free concentration of one partner at which half of the binding sites on the other are occupied at equilibrium, for simple one-to-one binding. Higher therefore signals a looser complex.

These data come from publication PMC6586995.
